The supplement of paper PMC10567573

B1: DLC1 (parent)
chain: AEVVKIRDSFSNQNTETKDTKSR
B2: ANKRD17 (parent)
chain: EMVRFLLEAGADQEHKTDEMHTAL

Variants of: B1
Experiment: protein stability index of a GFP-peptide fusion (GPS, HEK-293T) (PSI 1-6); higher = more stable
Details: c terminus: native
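Note: lentivirally expressed fusions sorted by FACS into six bins by GFP to DsRed ratio, PSI derived from sequencing read proportions per bin multiplied by bin number.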

Variant	protein stability index
AEVVKIRGSFSNQNTETKDTKSR [D8G]	2.23
AEVVKIRNSFSNQNTETKDTKSR [D8N]	2.07
AEVVKIRDEFSNQNTETKDTKSR [S9E]	3.48
AEVVKIRDLFSNQNTETKDTKSR [S9L]	2.95
AEVVKIRDYFSNQNTETKDTKSR [S9Y]	1.67
AEVVKIRDSFSNQNTETKDYKSR [T20Y]	2.1
AEVVKIRDSFSNQNTETKDGKSR [T20G]	2.51
AEVVKIRDSFSNQNTETKDAKSR [T20A]	1.79

Variants of: B2
Experiment: as above
Details: c terminus: a fixed tail appended

Variant	protein stability index
EMVRFLLEAGADQEHKTDSMHTAL [E19S]	2.16
EMVRFLLEAGADQEHKTDWMHTAL [E19W]	1.43
EMVRFLLEAGADQEHKTDVMHTAL [E19V]	1.79
EMVRFLLEAGADQEHKTDDMHTAL [E19D]	2.28
EMVRFLLEAGADQEHKTDAMHTAL [E19A]	2.33
EMVRWLLEAGADQEHKTDEMHTAL [F5W]	2.26
EMVRKLLEAGADQEHKTDEMHTAL [F5K]	4.33
EMVFFLLEAGADQEHKTDEMHTAL [R4F]	2.77
EMVYFLLEAGADQEHKTDEMHTAL [R4Y]	2.35
EMVTFLLEAGADQEHKTDEMHTAL [R4T]	3.22
EMVRFLLEAGADQEHKTDEMHTAK [L24K]	3.3
EMVRFLLEAGADQEHKTDEMHTAH [L24H]	2.78
EIVRFLLEAGADQEHKTDEMHTAL [M2I]	1.93
EPVRFLLEAGADQEHKTDEMHTAL [M2P]	4.75
ENVRFLLEAGADQEHKTDEMHTAL [M2N]	5.32
EWVRFLLEAGADQEHKTDEMHTAL [M2W]	2.5
EVVRFLLEAGADQEHKTDEMHTAL [M2V]	2.73
EMVRFLLEAGADQELKTDEMHTAL [H15L]	2.71
EMVRFLLEAGADQESKTDEMHTAL [H15S]	2.79
EMVRFLLVAGADQEHKTDEMHTAL [E8V]	1.89
EMVRFLLGAGADQEHKTDEMHTAL [E8G]	2.08
EMVRFLLFAGADQEHKTDEMHTAL [E8F]	1.94

Variant	protein stability index
EMVRFLLLAGADQEHKTDEMHTAL [E8L]	2.52
EMVRFLLEAGADQDHKTDEMHTAL [E14D]	2.61
EMVRFLLEAGADQLHKTDEMHTAL [E14L]	1.79
EMVRFLLEAGADQHHKTDEMHTAL [E14H]	2.01
EMVRFLLEAGADQRHKTDEMHTAL [E14R]	1.95
EMVRFLLEAGADQGHKTDEMHTAL [E14G]	2.63
EMVRFLLEAGADQEHKIDEMHTAL [T17I]	2.16
EMVRFLLEAGADQEHKNDEMHTAL [T17N]	2.21
EMVRFLLEAGADQEHKVDEMHTAL [T17V]	2.37
EMVRFLLEAGADQEHKSDEMHTAL [T17S]	2.76
EMVRFLLEAGADQEHKKDEMHTAL [T17K]	3.12
EMVRFLLEAGADQEHKADEMHTAL [T17A]	2.45
EMVRFLLETGADQEHKTDEMHTAL [A9T]	3.04
EMVRFLLEAGADQEHKTGEMHTAL [D18G]	2.26
EMVRFLLEAGADQEHKTSEMHTAL [D18S]	2.73
EMVRFLLEAGADQEHKTHEMHTAL [D18H]	2.01
EMVRFLLEAGADQEHKTREMHTAL [D18R]	2.1
EMVRFLLEAGADQEHKTLEMHTAL [D18L]	1.7
EMVRFLLEAGADQEHKTKEMHTAL [D18K]	2.47
EMVRFLLEAGADQEHKTDEMHTPL [A23P]	3.12
EMVRFLLEAGADQEHKTDEMHTHL [A23H]	2.69
EMVRFLLEAGADQEHKTDEMHTML [A23M]	2.7

Variant	protein stability index
EMVRFLLEAGADQEHKTDEMHTYL [A23Y]	3.03
EMVRFLLEAGADQEHRTDEMHTAL [K16R]	2.51
EMVRFILEAGADQEHKTDEMHTAL [L6I]	2.63
EMVRFSLEAGADQEHKTDEMHTAL [L6S]	4.69
EMVRFTLEAGADQEHKTDEMHTAL [L6T]	4.62
EMVRFLNEAGADQEHKTDEMHTAL [L7N]	3.72
EMVRFLDEAGADQEHKTDEMHTAL [L7D]	5.07
EMVRFLYEAGADQEHKTDEMHTAL [L7Y]	3.17
EMVRFLTEAGADQEHKTDEMHTAL [L7T]	3.99
EMVRFLMEAGADQEHKTDEMHTAL [L7M]	3.4
IMVRFLLEAGADQEHKTDEMHTAL [E1I]	1.74
FMVRFLLEAGADQEHKTDEMHTAL [E1F]	2.56
AMVRFLLEAGADQEHKTDEMHTAL [E1A]	2.3
QMVRFLLEAGADQEHKTDEMHTAL [E1Q]	2.9
EMVRFLLEAGADYEHKTDEMHTAL [Q13Y]	1.87
EMVRFLLEAGADAEHKTDEMHTAL [Q13A]	2.65
EMVRFLLEAGADIEHKTDEMHTAL [Q13I]	2.36
EMVRFLLEAGADCEHKTDEMHTAL [Q13C]	3.28
EMVRFLLEAGADEEHKTDEMHTAL [Q13E]	2.79
EMVRFLLEAGADREHKTDEMHTAL [Q13R]	2.22
EMVRFLLEAGADHEHKTDEMHTAL [Q13H]	2.46
EMVRFLLEAGAFQEHKTDEMHTAL [D12F]	1.66

Variant	protein stability index
EMVRFLLEAGAYQEHKTDEMHTAL [D12Y]	1.89
EMVRFLLEAGAVQEHKTDEMHTAL [D12V]	2.05
EMVRFLLEAGAHQEHKTDEMHTAL [D12H]	1.94
EMVRFLLEAGACQEHKTDEMHTAL [D12C]	1.44
EMARFLLEAGADQEHKTDEMHTAL [V3A]	4.03
EMVRFLLEAGADQEHKTDEMHEAL [T22E]	3.42
EMVRFLLEAGADQEHKTDEMHKAL [T22K]	2.51
EMVRFLLEAGADQEHKTDEMHFAL [T22F]	1.97
EMVRFLLEAGADQEHKTDEMHPAL [T22P]	2.86
EMVRFLLEALADQEHKTDEMHTAL [G10L]	1.95
EMVRFLLEANADQEHKTDEMHTAL [G10N]	2.82
EMVRFLLEAYADQEHKTDEMHTAL [G10Y]	1.72
EMVRFLLEAGCDQEHKTDEMHTAL [A11C]	2.57
EMVRFLLEAGKDQEHKTDEMHTAL [A11K]	2.64
EMVRFLLEAGSDQEHKTDEMHTAL [A11S]	3.1
EMVRFLLEAGVDQEHKTDEMHTAL [A11V]	2.94
EMVRFLLEAGADQEHKTDEIHTAL [M20I]	2.36
EMVRFLLEAGADQEHKTDERHTAL [M20R]	3.5
EMVRFLLEAGADQEHKTDECHTAL [M20C]	2.48
EMVRFLLEAGADQEHKTDESHTAL [M20S]	3.45
EMVRFLLEAGADQEHKTDEDHTAL [M20D]	3.56
EMVRFLLEAGADQEHKTDEMATAL [H21A]	3.24
